# Source: PMC3310397
# Legend:
# [1] = target: G-CSF receptor on NFS-60 cells (mouse (endogenous in NFS-60)) (UniProt P40223); assay: radioligand binding
# [2] = target: Tf receptor on Caco-2 cells (human (endogenous in Caco-2)) (UniProt P02786); assay: radioligand binding
# Chain of UniProt P02786 (P02786 whole entry): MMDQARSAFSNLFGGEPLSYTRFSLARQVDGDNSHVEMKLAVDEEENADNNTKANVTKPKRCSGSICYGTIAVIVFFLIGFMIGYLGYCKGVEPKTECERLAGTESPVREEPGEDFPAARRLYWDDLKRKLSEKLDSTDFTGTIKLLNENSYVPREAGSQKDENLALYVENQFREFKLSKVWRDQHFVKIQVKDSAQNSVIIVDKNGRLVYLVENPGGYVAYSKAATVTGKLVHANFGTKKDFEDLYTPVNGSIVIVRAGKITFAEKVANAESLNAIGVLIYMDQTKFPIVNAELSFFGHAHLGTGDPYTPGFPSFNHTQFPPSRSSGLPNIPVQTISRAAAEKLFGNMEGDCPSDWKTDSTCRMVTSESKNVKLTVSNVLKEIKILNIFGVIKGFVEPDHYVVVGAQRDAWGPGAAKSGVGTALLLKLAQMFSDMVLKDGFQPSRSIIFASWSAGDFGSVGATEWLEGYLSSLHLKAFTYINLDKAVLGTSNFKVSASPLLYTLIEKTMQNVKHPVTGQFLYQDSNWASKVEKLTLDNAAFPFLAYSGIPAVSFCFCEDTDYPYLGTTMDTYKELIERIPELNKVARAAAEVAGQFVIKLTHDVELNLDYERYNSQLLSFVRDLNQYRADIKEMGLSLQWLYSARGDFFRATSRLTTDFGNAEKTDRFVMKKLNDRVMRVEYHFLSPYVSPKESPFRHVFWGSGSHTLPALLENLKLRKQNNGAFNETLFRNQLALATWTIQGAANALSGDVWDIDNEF
# Chain of UniProt P40223 (P40223 26-837): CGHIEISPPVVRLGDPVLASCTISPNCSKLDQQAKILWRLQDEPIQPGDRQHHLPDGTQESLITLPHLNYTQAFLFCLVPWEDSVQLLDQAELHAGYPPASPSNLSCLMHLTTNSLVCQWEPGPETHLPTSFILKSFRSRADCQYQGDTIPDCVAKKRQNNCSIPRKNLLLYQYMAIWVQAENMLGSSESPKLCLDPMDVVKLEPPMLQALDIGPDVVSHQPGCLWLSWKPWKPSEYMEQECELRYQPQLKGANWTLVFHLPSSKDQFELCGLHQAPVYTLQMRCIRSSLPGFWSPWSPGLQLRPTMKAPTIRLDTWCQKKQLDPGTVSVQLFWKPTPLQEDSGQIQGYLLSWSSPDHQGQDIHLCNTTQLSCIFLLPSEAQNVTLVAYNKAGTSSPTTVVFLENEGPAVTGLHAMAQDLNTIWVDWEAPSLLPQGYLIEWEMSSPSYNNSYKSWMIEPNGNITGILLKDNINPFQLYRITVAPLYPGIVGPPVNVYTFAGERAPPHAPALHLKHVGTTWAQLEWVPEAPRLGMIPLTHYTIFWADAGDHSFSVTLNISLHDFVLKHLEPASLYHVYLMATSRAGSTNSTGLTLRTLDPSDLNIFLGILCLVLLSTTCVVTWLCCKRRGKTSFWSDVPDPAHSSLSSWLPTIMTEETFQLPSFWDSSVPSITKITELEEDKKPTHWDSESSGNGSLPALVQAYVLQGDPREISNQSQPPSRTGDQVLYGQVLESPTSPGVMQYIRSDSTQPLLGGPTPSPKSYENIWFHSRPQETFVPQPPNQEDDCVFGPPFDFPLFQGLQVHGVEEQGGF
IC50 [1],IC50 [2],Substance
38 nM,7.5 nM,G-CSF-LE-Tf fusion protein (dipeptide linker)
–,21.2 nM,GH-LE-Tf fusion protein (dipeptide linker)
113 nM,–,"recombinant human G-CSF, aglycosylated (Neupogen) (from UniProt P09919-2 31-204) (ligand)"
